# Data as given in IntAct's records for PubMed 19536131.
# B1: E3 ubiquitin-protein ligase makorin-1 (Homo sapiens), Q9UHC7 (parent)
# chain: MAEAATPGTTATTSGAGAAAATAAAASPTPIPTVTAPSLGAGGGGGGSDGSGGGWTKQVTCRYFMHGVCKEGDNCRYSHDLSDSPYSVVCKYFQRGYCIYGDRCRYEHSKPLKQEEATATELTTKSSLAASSSLSSIVGPLVEMNTGEAESRNSNFATVGAGSEDWVNAIEFVPGQPYCGRTAPSCTEAPLQGSVTKEESEKEQTAVETKKQLCPYAAVGECRYGENCVYLHGDSCDMCGLQVLHPMDAAQRSQHIKSCIEAHEKDMELSFAVQRSKDMVCGICMEVVYEKANPSERRFGILSNCNHTYCLKCIRKWRSAKQFESKIIKSCPECRITSNFVIPSEYWVEEKEEKQKLILKYKEAMSNKACRYFDEGRGSCPFGGNCFYKHAYPDGRREEPQRQKVGTSSRYRAQRRNHFWELIEERENSNPFDNDEEEVVTFELGEMLLMLLAAGGDDELTDSEDEWDLFHDELEDFYDLDL
# Variants of: B1
# Details: with ubc_human UBC
row,effect of a mutation on the interaction,Variant
1,disrupting interaction,MAEAATPGTTATTSGAGAAAATAAAASPTPIPTVTAPSLGAGGGGGGSDGSGGGWTKQVTCRYFMHGVCKEGDNCRYSHDLSDSPYSVVCKYFQRGYCIYGDRCRYEHSKPLKQEEATATELTTKSSLAASSSLSSIVGPLVEMNTGEAESRNSNFATVGAGSEDWVNAIEFVPGQPYCGRTAPSCTEAPLQGSVTKEESEKEQTAVETKKQLCPYAAVGECRYGENCVYLHGDSCDMCGLQVLHPMDAAQRSQHIKSCIEAHEKDMELSFAVQRSKDMVCGICMEVVYEKANPSERRFGILSNCNETYCLKCIRKWRSAKQFESKIIKSCPECRITSNFVIPSEYWVEEKEEKQKLILKYKEAMSNKACRYFDEGRGSCPFGGNCFYKHAYPDGRREEPQRQKVGTSSRYRAQRRNHFWELIEERENSNPFDNDEEEVVTFELGEMLLMLLAAGGDDELTDSEDEWDLFHDELEDFYDLDL [H307E]
